Reference: paper PMC7844235, “Redirecting substrate regioselectivity using engineered ΔN123-GBD-CD2 branching sucrases for the production of pentasaccharide repeating units of S. flexneri 3a, 4a and 4b haptens” (Scientific Reports, 2021)
Where a chain is given by its changes, count along the chain named. In names and notes the source's numbering stands.

B1: ΔN123-GBD-CD2 branching sucrase (Leuconostoc mesenteroides) (protein)
chain: QAGHYITKNGNDWQYDTNGELAKGLRQDSNGKLRYFDLTTGIQAKGQFVTIGQETYYFSKDHGDAQLLPMVTEGHYGTITLKQGQDTKTAWVYRDQNNTILKGLQNINGTLQFFDPYTGEQLKGGVAKYDDKLFYFESGKGNLVSTVAGDYQDGHYISQDGQTRYADKQNQLVKGLVTVNGALQYFDNATGNQIKNQQVIVDGKTYYFDDKGNGEYLFTNTLDMSTNAFSTKNVAFNHDSSSFDHTVDGFLTADTWYRPKSILANGTTWRDSTDKDMRPLITVWWPNKNVQVNYLNFMKANGLLTTAAQYTLHSDQYDLNQAAQDVQVAIERRIASEHGTDWLQKLLFESQNNNPSFVKQQFIWNKDSEYHGGGDAWFQGGYLKYGNNPLTPTTNSDYRQPGNAFDFLLANDVDNSNPVVQAENLNWLHYLMNFGTITAGQDDANFDSIRIDAVDFIHNDTIQRTYDYLRDAYQVQQSEAKANQHISLVEAGLDAGTSTIHNDALIESNLREAATLSLTNEPGKNKPLTNMLQDVDGGTLITDHTQNSTENQATPNYSIIHAHDKGVQEKVGAAITDATGADWTNFTDEQLKAGLELFYKDQRATNKKYNSYNIPSIYALMLTNKDTVPRMYYGDMYQDDGQYMANKSIYYDALVSLMTARKSYVSGGQTMSVDNHGLLKSVRFGKDAMTANDLGTSATRTEGLGVIIGNDPKLQLNDSDKVTLDMGAAHKNQKYRAVILTTRDGLATFNSDQAPTAWTNDQGTLTFSNQEINGQDNTQIRGVANPQVSGYLAVWVPVGASDNQDARTAATTTENHDGKVLHSNAALDSNLIYEGFSNFQPKATTHDELTNVVIAKNADVFNNWGITSFEMAPQYRSSGDHTFLDSTIDNGYAFTDRYDLGFNTPTKYGTDGDLRATIQALHHANMQVMADVVDNQVYNLPGKEVVSATRAGVYGNDDATGFGTQLYVTNSVGGGQYQEKYAGQYLEALKAKYPDLFEGKAYDYWYKNYANDGSNPYYTLSHGDRESIPADVAIKQWSAKYMNGTNVLGNGMGYVLKDWHNGQYFKLDGDKSTLPQI
B2: ΔN123-GBD-CD2 branching sucrase (Leuconostoc mesenteroides; F2136L/W2135S) (protein)
chain: B1 chain with W377S, F378L
B3: ΔN123-GBD-CD2 branching sucrase (Leuconostoc mesenteroides; F2163G) (protein)
chain: B1 chain with F405G

Substrate: OC[C@H]1O[C@@](CO)(O[C@H]2O[C@H](CO)[C@@H](O)[C@H](O)[C@H]2O)[C@@H](O)[C@@H]1O
Assay: sucrose hydrolysis, HPLC-CAD, Michaelis-Menten fit
Type: biochemical, Leuconostoc mesenteroides
Conditions: sucrose as sole substrate, 50 mM sodium acetate pH 5.1, 30 °C
Excerpt: sucrose hydrolysis, HPLC-CAD, Michaelis-Menten fit on ΔN123-GBD-CD2 branching sucrase

| Protein | Km | Vmax | kcat |
| --- | --- | --- | --- |
| B1 | 30.5 ± 7.2 mM | 77.5 µmol/min/mg | 162 ± 12.7 s⁻¹ |
| B2 | 8.8 ± 1.0 mM | 17.7 µmol/min/mg | 36.9 ± 0.9 s⁻¹ |
| B3 | 7.0 ± 1.2 mM | 16.8 µmol/min/mg | 35.1 ± 0.9 s⁻¹ |
